Experimental data published in the supplement of paper PMC9112550, “Optimization of the antimicrobial peptide Bac7 by deep mutational scanning” (BMC Biology, 2022).

Test system: Escherichia coli TOP10
Assay: shrunken log2 fold change of peptide-encoding DNA abundance (4.5 h post-induction vs induction); higher = less antimicrobial activity (less host growth inhibition)
Conditions: time post-induction: 4.5 h; library: site-saturation at positions 5, 18, 19, 20
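Also: peptides expressed intracellularly from a pBAD plasmid library in pooled LB shake-flask culture, induced with 0.3% L-arabinose, DNA abundance read by NGS, three biological replicates, DESeq2 with apeglm shrinkage.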

Sequence	shrunken log2 fold change
RRIRARPPRLPRPRPRPNGCPRP	-0.0858
RRIRNRPPRLPRPRPRPMKGPRP	-0.0787
RRIRQRPPRLPRPRPRPYLIPRP	-0.89
RRIRQRPPRLPRPRPRPTIHPRP	-0.32
RRIRVRPPRLPRPRPRPYNIPRP	-1.26
RRIRKRPPRLPRPRPRPFLLPRP	-0.399
RRIRYRPPRLPRPRPRPGIPPRP	-0.193
RRIRERPPRLPRPRPRPTIRPRP	-0.622
RRIRSRPPRLPRPRPRPCCYPRP	0.145
RRIRARPPRLPRPRPRPENWPRP	0.569
RRIRIRPPRLPRPRPRPYMVPRP	-0.377
RRIRARPPRLPRPRPRPGNTPRP	-0.0858
RRIRQRPPRLPRPRPRPDTSPRP	0.00601
RRIRYRPPRLPRPRPRPDLCPRP	0.0404
RRIRLRPPRLPRPRPRPRKPPRP	0.751
RRIRSRPPRLPRPRPRPERIPRP	-0.065
RRIRARPPRLPRPRPRPLFIPRP	-0.331
RRIRWRPPRLPRPRPRPKRPPRP	0.873
RRIRTRPPRLPRPRPRPMFNPRP	-0.643
RRIRMRPPRLPRPRPRPSKFPRP	-0.0303
RRIRRRPPRLPRPRPRPEQQPRP	0.22
RRIRQRPPRLPRPRPRPKCKPRP	0.0386
RRIRFRPPRLPRPRPRPMHKPRP	-0.263
RRIRFRPPRLPRPRPRPKYNPRP	-0.978
RRIRARPPRLPRPRPRPQKNPRP	0.0395

Sequence	shrunken log2 fold change
RRIRMRPPRLPRPRPRPDAIPRP	0.164
RRIRPRPPRLPRPRPRPKHGPRP	0.127
RRIRDRPPRLPRPRPRPQHEPRP	-0.00197
RRIRGRPPRLPRPRPRPVKNPRP	0.554
RRIRQRPPRLPRPRPRPDLGPRP	0.0039
RRIRNRPPRLPRPRPRPSQYPRP	-0.268
RRIRLRPPRLPRPRPRPWSNPRP	-0.195
RRIRARPPRLPRPRPRPLHVPRP	0.0439
RRIRRRPPRLPRPRPRPKALPRP	0.237
RRIRIRPPRLPRPRPRPIMVPRP	-0.412
RRIRQRPPRLPRPRPRPYWYPRP	-0.0759
RRIRIRPPRLPRPRPRPKNPPRP	-0.439
RRIRERPPRLPRPRPRPKEEPRP	-0.000921
RRIRRRPPRLPRPRPRPMVQPRP	-0.00615
RRIRLRPPRLPRPRPRPGEYPRP	-0.0271
RRIRTRPPRLPRPRPRPPIDPRP	-0.231
RRIRCRPPRLPRPRPRPCNHPRP	-0.227
RRIRERPPRLPRPRPRPQNKPRP	-0.64
RRIRYRPPRLPRPRPRPAGFPRP	-0.0806
RRIRSRPPRLPRPRPRPYEPPRP	-0.619
RRIRHRPPRLPRPRPRPNTMPRP	-0.905
RRIRPRPPRLPRPRPRPTGGPRP	0.392
RRIRGRPPRLPRPRPRPTALPRP	1.12
RRIRIRPPRLPRPRPRPAHSPRP	-0.0596
RRIRTRPPRLPRPRPRPQHLPRP	-0.0898

Sequence	shrunken log2 fold change
RRIRHRPPRLPRPRPRPYCPPRP	-0.0225
RRIRGRPPRLPRPRPRPMDMPRP	-0.02
RRIRYRPPRLPRPRPRPTGAPRP	0.136
RRIRCRPPRLPRPRPRPLCFPRP	-0.0241
RRIRQRPPRLPRPRPRPTQNPRP	0.627
RRIRNRPPRLPRPRPRPFVNPRP	-0.0775
RRIRLRPPRLPRPRPRPTSRPRP	0.0104
RRIRQRPPRLPRPRPRPYELPRP	-0.695
RRIRNRPPRLPRPRPRPCDFPRP	-0.529
RRIRIRPPRLPRPRPRPPLCPRP	0.142
RRIRDRPPRLPRPRPRPRPKPRP	0.548
RRIRCRPPRLPRPRPRPAYYPRP	-0.476
RRIRTRPPRLPRPRPRPSPLPRP	-0.335
RRIRNRPPRLPRPRPRPKTDPRP	-0.206
RRIRTRPPRLPRPRPRPCAYPRP	-0.164
RRIRERPPRLPRPRPRPCWVPRP	-0.26
RRIRSRPPRLPRPRPRPQFLPRP	-0.394
RRIRCRPPRLPRPRPRPSNCPRP	-0.0679
RRIRKRPPRLPRPRPRPNRVPRP	-0.00538
RRIRSRPPRLPRPRPRPFALPRP	-0.0971
RRIRNRPPRLPRPRPRPPAMPRP	0.124
RRIRVRPPRLPRPRPRPERFPRP	-0.023
RRIRHRPPRLPRPRPRPMKIPRP	-0.0248
RRIRPRPPRLPRPRPRPALGPRP	0.964
RRIRLRPPRLPRPRPRPPDFPRP	-0.0501

Sequence	shrunken log2 fold change
RRIRKRPPRLPRPRPRPGHPPRP	0.943
RRIRKRPPRLPRPRPRPWFLPRP	-0.157
RRIRMRPPRLPRPRPRPLCCPRP	0.104
RRIRGRPPRLPRPRPRPYPHPRP	0.103
RRIRNRPPRLPRPRPRPVQHPRP	-0.258
RRIRHRPPRLPRPRPRPNWTPRP	-0.0102
RRIRSRPPRLPRPRPRPCINPRP	-0.5
RRIRGRPPRLPRPRPRPAPEPRP	1.34
RRIRGRPPRLPRPRPRPWEIPRP	0.361
RRIRYRPPRLPRPRPRPIEMPRP	0.0294
RRIRPRPPRLPRPRPRPIEPPRP	0.109
RRIRRRPPRLPRPRPRPYNSPRP	-0.573
RRIRQRPPRLPRPRPRPLYVPRP	-0.307
RRIRWRPPRLPRPRPRPCYEPRP	-0.136
RRIRIRPPRLPRPRPRPIIRPRP	-0.453
RRIRQRPPRLPRPRPRPVMMPRP	-0.335
RRIRPRPPRLPRPRPRPWRMPRP	0.217
RRIRCRPPRLPRPRPRPIYMPRP	-1.29
RRIRMRPPRLPRPRPRPDVDPRP	0.104
RRIRERPPRLPRPRPRPKEDPRP	0.0193
RRIRFRPPRLPRPRPRPDKQPRP	-0.0106
RRIRHRPPRLPRPRPRPYSGPRP	-0.151
RRIRARPPRLPRPRPRPQSNPRP	-0.142
RRIRGRPPRLPRPRPRPLEVPRP	0.252
RRIRLRPPRLPRPRPRPVFMPRP	-0.203

Sequence	shrunken log2 fold change
RRIRHRPPRLPRPRPRPSCTPRP	-0.263
RRIRWRPPRLPRPRPRPEHNPRP	0.147
RRIRERPPRLPRPRPRPQTMPRP	-0.157
RRIRFRPPRLPRPRPRPDVTPRP	-0.302
RRIRPRPPRLPRPRPRPHIIPRP	-0.19
RRIRQRPPRLPRPRPRPFLYPRP	-0.615
RRIRPRPPRLPRPRPRPGHHPRP	0.0565
RRIRGRPPRLPRPRPRPCGEPRP	0.931
RRIRERPPRLPRPRPRPVRCPRP	0.162
RRIRWRPPRLPRPRPRPTQVPRP	0.477
RRIRSRPPRLPRPRPRPPSYPRP	-0.555
RRIRQRPPRLPRPRPRPCEVPRP	-0.00192
RRIRFRPPRLPRPRPRPLTKPRP	-0.2
RRIRNRPPRLPRPRPRPSLTPRP	-0.266
RRIRPRPPRLPRPRPRPHNWPRP	0.0255
RRIRWRPPRLPRPRPRPAKFPRP	0.0295
RRIRRRPPRLPRPRPRPSNFPRP	-0.177
RRIRPRPPRLPRPRPRPPEPPRP	0.787
RRIRVRPPRLPRPRPRPCDMPRP	-0.448
RRIRPRPPRLPRPRPRPEAWPRP	-0.0196
RRIRARPPRLPRPRPRPTGHPRP	-0.132
RRIRRRPPRLPRPRPRPTMMPRP	0.167
RRIRDRPPRLPRPRPRPRGWPRP	1.35
RRIRERPPRLPRPRPRPIPHPRP	-0.19
RRIRRRPPRLPRPRPRPCSHPRP	-0.18

Sequence	shrunken log2 fold change
RRIRNRPPRLPRPRPRPLGLPRP	-0.0325
RRIRKRPPRLPRPRPRPWNYPRP	-0.154
RRIRIRPPRLPRPRPRPDVEPRP	-0.054
RRIRHRPPRLPRPRPRPPMLPRP	0.0935
RRIRIRPPRLPRPRPRPVHTPRP	-0.4
RRIRWRPPRLPRPRPRPCYWPRP	-0.201
RRIRCRPPRLPRPRPRPGMVPRP	0.0377
RRIRTRPPRLPRPRPRPQMMPRP	-0.0792
RRIRNRPPRLPRPRPRPHNNPRP	-1.05
RRIRCRPPRLPRPRPRPAQMPRP	0.224
RRIRRRPPRLPRPRPRPKEEPRP	-0.00663
RRIRLRPPRLPRPRPRPGGMPRP	-0.16
RRIRRRPPRLPRPRPRPYALPRP	-0.5
RRIRVRPPRLPRPRPRPMMNPRP	-0.28
RRIRSRPPRLPRPRPRPDYCPRP	-0.284
RRIRARPPRLPRPRPRPGHIPRP	0.0195
RRIRDRPPRLPRPRPRPYISPRP	-0.176
RRIRNRPPRLPRPRPRPAYGPRP	0.118
RRIRERPPRLPRPRPRPWAAPRP	-0.101
RRIRWRPPRLPRPRPRPDTNPRP	-0.144
RRIRMRPPRLPRPRPRPYNIPRP	-0.358
RRIRFRPPRLPRPRPRPLIAPRP	-0.234
RRIRRRPPRLPRPRPRPYTTPRP	-0.354
RRIRTRPPRLPRPRPRPADVPRP	-0.391
RRIRFRPPRLPRPRPRPCHWPRP	-0.127
